The test addresses tor1a_human TOR1A (UniProt O14656).

Consider “Torsin-1A-interacting protein 2 (Homo sapiens), Q8NFQ8 R412G”, for which the “effect of a mutation on the interaction” value is given as “decreasing interaction strength”.

For the origin of these results see IntAct's records for PubMed 40088780.
